{
  "source": "the supplement of paper PMC5998384",
  "key": {"HeLa Kyoto [1]": {"system": "HeLa Kyoto", "assay": "melting temperature (median over replicates), in situ; higher = more thermally stable"}, "HeLa Kyoto [2]": {"system": "HeLa Kyoto", "assay": "solubility in G1/S (NP-40 vs SDS abundance) (log2 ratio); higher = more soluble", "settings": "cell cycle stage: G1/S"}, "HeLa Kyoto [3]": {"system": "HeLa Kyoto", "assay": "solubility change mitosis vs G1/S (difference of NP-40 vs SDS log2 ratios) (log2 ratio difference); higher = more soluble in mitosis"}, "HeLa Kyoto [4]": {"system": "HeLa Kyoto", "assay": "thermal stability score vs G1/S (z-score of summed log2 fold changes over temperatures); higher = more thermally stable than in G1/S"}, "[5]": {"settings": "cell cycle stage: early G1 (4.5 h after nocodazole release)"}},
  "data": [
    {"substance": "MLTLQTWLVQALFIFLTTESTGELLDPCGYISPESPVVQLHSNFTAVCVLKEKCMDYFHVNANYIVWKTNHFTIPKEQYTIINRTASSVTFTDIASLNIQLTCNILTFGQLEQNVYGITIISGLPPEKPKNLSCIVNEGKKMRCEWDGGRETHLETNFTLKSEWATHKFADCKAKRDTPTSCTVDYSTVYFVNIEVWVEAENALGKVTSDHINFDPVYKVKPNPPHNLSVINSEELSSILKLTWTNPSIKSVIILKYNIQYRTKDASTWSQIPPEDTASTRSSFTVQDLKPFTEYVFRIRCMKEDGKGYWSDWSEEASGITYEDRPSKAPSFWYKIDPSHTQGYRTVQLVWKTLPPFEANGKILDYEVTLTRWKSHLQNYTVNATKLTVNLTNDRYLATLTVRNLVGKSDAAVLTIPACDFQATHPVMDLKAFPKDNMLWVEWTTPRESVKKYILEWCVLSDKAPCITDWQQEDGTVHRTYLRGNLAESKCYLITVTPVYADGPGSPESIKAYLKQAPPSKGPTVRTKKVGKNEAVLEWDQLPVDVQNGFIRNYTIFYRTIIGNETAVNVDSSHTEYTLSSLTSDTLYMVRMAAYTDEGGKDGPEFTFTTPKFAQGEIEAIVVPVCLAFLLTTLLGVLFCFNKRDLIKKHIWPNVPDPSKSHIAQWSPHTPPRHNFNSKDQMYSDGNFTDVSVVEIEANDKKPFPEDLKSLDLFKKEKINTEGHSSGIGGSSCMSSSRPSISSSDENESSQNTSSTVQYSTVVHSGYRHQVPSVQVFSRSESTQPLLDSEERPEDLQLVDHVDGGDGILPRQQYFKQNCSQHESSPDISHFERSKQVSSVNEEDFVRLKQQISDHISQSCGSGQMKMFQEVSAADAFGPGTEGQVERFETVGMEAATDEGMPKSYLPQTVRQGGYMPQ [IL6ST]", "values": [
      {"measurement": "melting temperature", "setting": "HeLa Kyoto [1]; cell cycle stage: G1/S", "value": 53.9, "unit": "°C"},
      {"measurement": "melting temperature", "setting": "HeLa Kyoto [1]; cell cycle stage: mitosis", "value": 56.2, "unit": "°C"},
      {"measurement": "solubility in G1/S (log2)", "setting": "HeLa Kyoto [2]", "value": 0.0822},
      {"measurement": "solubility change mitosis (log2)", "setting": "HeLa Kyoto [3]", "value": 0.0736},
      {"measurement": "thermal stability score", "setting": "HeLa Kyoto [4]; [5]", "value": -2.55},
      {"measurement": "thermal stability score", "setting": "HeLa Kyoto [4]; cell cycle stage: mitosis", "value": -3.18}
    ]},
    {"substance": "MSMEDPFFVVKGEVQKAVNTAQGLFQRWTELLQDPSTATREEIDWTTNELRNNLRSIEWDLEDLDETISIVEANPRKFNLDATELSIRKAFITSTRQVVRDMKDQMSTSSVQALAERKNRQALLGDSGSQNWSTGTTDKYGRLDRELQRANSHFIEEQQAQQQLIVEQQDEQLELVSGSIGVLKNMSQRIGGELEEQAVMLEDFSHELESTQSRLDNVMKKLAKVSHMTSDRRQWCAIAILFAVLLVVLILFLVL [STX6]", "values": [
      {"measurement": "melting temperature", "setting": "HeLa Kyoto [1]; cell cycle stage: G1/S", "value": 53.5, "unit": "°C"},
      {"measurement": "melting temperature", "setting": "HeLa Kyoto [1]; cell cycle stage: mitosis", "value": 52.9, "unit": "°C"},
      {"measurement": "solubility in G1/S (log2)", "setting": "HeLa Kyoto [2]", "value": -0.167},
      {"measurement": "solubility change mitosis (log2)", "setting": "HeLa Kyoto [3]", "value": -0.118},
      {"measurement": "thermal stability score", "setting": "HeLa Kyoto [4]; [5]", "value": 1.56},
      {"measurement": "thermal stability score", "setting": "HeLa Kyoto [4]; cell cycle stage: mitosis", "value": -0.616}
    ]},
    {"substance": "SEC16A", "values": [
      {"measurement": "melting temperature", "setting": "HeLa Kyoto [1]; cell cycle stage: G1/S", "value": 49.4, "unit": "°C"},
      {"measurement": "melting temperature", "setting": "HeLa Kyoto [1]; cell cycle stage: mitosis", "value": 49.7, "unit": "°C"},
      {"measurement": "solubility in G1/S (log2)", "setting": "HeLa Kyoto [2]", "value": -0.0963},
      {"measurement": "solubility change mitosis (log2)", "setting": "HeLa Kyoto [3]", "value": -0.00335},
      {"measurement": "thermal stability score", "setting": "HeLa Kyoto [4]; [5]", "value": 0.0465},
      {"measurement": "thermal stability score", "setting": "HeLa Kyoto [4]; cell cycle stage: mitosis", "value": 2.03}
    ]},
    {"substance": "CASC5", "values": [
      {"measurement": "melting temperature", "setting": "HeLa Kyoto [1]; cell cycle stage: G1/S", "value": 47.7, "unit": "°C"},
      {"measurement": "melting temperature", "setting": "HeLa Kyoto [1]; cell cycle stage: mitosis", "value": 48.3, "unit": "°C"},
      {"measurement": "solubility in G1/S (log2)", "setting": "HeLa Kyoto [2]", "value": -0.247},
      {"measurement": "solubility change mitosis (log2)", "setting": "HeLa Kyoto [3]", "value": -0.0741},
      {"measurement": "thermal stability score", "setting": "HeLa Kyoto [4]; [5]", "value": 1.3},
      {"measurement": "thermal stability score", "setting": "HeLa Kyoto [4]; cell cycle stage: mitosis", "value": 1.4}
    ]},
    {"substance": "MRRFLLLYATQQGQAKAIAEEICEQAVVHGFSADLHCISESDKYDLKTETAPLVVVVSTTGTGDPPDTARKFVKEIQNQTLPVDFFAHLRYGLLGLGDSEYTYFCNGGKIIDKRLQELGARHFYDTGHADDCVGLELVVEPWIAGLWPALRKHFRSSRGQEEISGALPVASPASSRTDLVKSELLHIESQVELLRFDDSGRKDSEVLKQNAVNSNQSNVVIEDFESSLTRSVPPLSQASLNIPGLPPEYLQVHLQESLGQEESQVSVTSADPVFQVPISKAVQLTTNDAIKTTLLVELDISNTDFSYQPGDAFSVICPNSDSEVQSLLQRLQLEDKREHCVLLKIKADTKKKGATLPQHIPAGCSLQFIFTWCLEIRAIPKKAFLRALVDYTSDSAEKRRLQELCSKQGAADYSRFVRDACACLLDLLLAFPSCQPPLSLLLEHLPKLQPRPYSCASSSLFHPGKLHFVFNIVEFLSTATTEVLRKGVCTGWLALLVASVLQPNIHASHEDSGKALAPKISISPRTTNSFHLPDDPSIPIIMVGPGTGIAPFIGFLQHREKLQEQHPDGNFGAMWLFFGCRHKDRDYLFRKELRHFLKHGILTHLKVSFSRDAPVGEEEAPAKYVQDNIQLHGQQVARILLQENGHIYVCGDAKNMAKDVHDALVQIISKEVGVEKLEAMKTLATLKEEKRYLQDIWS [MTRR]", "values": [
      {"measurement": "melting temperature", "setting": "HeLa Kyoto [1]; cell cycle stage: G1/S", "value": 50.1, "unit": "°C"},
      {"measurement": "melting temperature", "setting": "HeLa Kyoto [1]; cell cycle stage: mitosis", "value": 50.2, "unit": "°C"},
      {"measurement": "solubility in G1/S (log2)", "setting": "HeLa Kyoto [2]", "value": 0.0379},
      {"measurement": "solubility change mitosis (log2)", "setting": "HeLa Kyoto [3]", "value": -0.105},
      {"measurement": "thermal stability score", "setting": "HeLa Kyoto [4]; [5]", "value": 0.212},
      {"measurement": "thermal stability score", "setting": "HeLa Kyoto [4]; cell cycle stage: mitosis", "value": 0.326}
    ]},
    {"substance": "NOTCH2", "values": [
      {"measurement": "melting temperature", "setting": "HeLa Kyoto [1]; cell cycle stage: G1/S", "value": 50.1, "unit": "°C"},
      {"measurement": "melting temperature", "setting": "HeLa Kyoto [1]; cell cycle stage: mitosis", "value": 51, "unit": "°C"},
      {"measurement": "solubility in G1/S (log2)", "setting": "HeLa Kyoto [2]", "value": -0.0358},
      {"measurement": "solubility change mitosis (log2)", "setting": "HeLa Kyoto [3]", "value": -0.171},
      {"measurement": "thermal stability score", "setting": "HeLa Kyoto [4]; [5]", "value": -1.09},
      {"measurement": "thermal stability score", "setting": "HeLa Kyoto [4]; cell cycle stage: mitosis", "value": -2.98}
    ]},
    {"substance": "MAAGFGRCCRVLRSISRFHWRSQHTKANRQREPGLGFSFEFTEQQKEFQATARKFAREEIIPVAAEYDKTGEYPVPLIRRAWELGLMNTHIPENCGGLGLGTFDACLISEELAYGCTGVQTAIEGNSLGQMPIIIAGNDQQKKKYLGRMTEEPLMCAYCVTEPGAGSDVAGIKTKAEKKGDEYIINGQKMWITNGGKANWYFLLARSDPDPKAPANKAFTGFIVEADTPGIQIGRKELNMGQRCSDTRGIVFEDVKVPKENVLIGDGAGFKVAMGAFDKTRPVVAAGAVGLAQRALDEATKYALERKTFGKLLVEHQAISFMLAEMAMKVELARMSYQRAAWEVDSGRRNTYYASIAKAFAGDIANQLATDAVQILGGNGFNTEYPVEKLMRDAKIYQIYEGTSQIQRLIVAREHIDKYKN [ACADM]", "values": [
      {"measurement": "melting temperature", "setting": "HeLa Kyoto [1]; cell cycle stage: G1/S", "value": 54.7, "unit": "°C"},
      {"measurement": "melting temperature", "setting": "HeLa Kyoto [1]; cell cycle stage: mitosis", "value": 54.7, "unit": "°C"},
      {"measurement": "solubility in G1/S (log2)", "setting": "HeLa Kyoto [2]", "value": 0.248},
      {"measurement": "solubility change mitosis (log2)", "setting": "HeLa Kyoto [3]", "value": -0.0323},
      {"measurement": "thermal stability score", "setting": "HeLa Kyoto [4]; [5]", "value": -1.04},
      {"measurement": "thermal stability score", "setting": "HeLa Kyoto [4]; cell cycle stage: mitosis", "value": -2.26}
    ]}
  ]
}
